Test results as given in PMC11108154.
Where “and” joins values, the source holds several entries; their conditions need not be identical. Equal values may be shown once.

What was measured:
[1] = biological target: AMP-glucagon (generic synthetic glucagon for injection, Amphastar Pharmaceuticals) (UniProt P01275); assay: SEC; SEC-HPLC of expired lots (end of shelf life); Phenomenex Yarra 3 um SEC-2000, isocratic 55% 0.1% TFA / 45% acetonitrile, 1.000 mL/min, ambient temperature, UV 214 nm; reconstituted with the included diluent and tested immediately; monomer and dimer told by a calibration curve
[2] = biological target: ELI-glucagon (Eli Lilly's Glucagon, recombinant, reference listed drug) (UniProt P01275); assay: as above
[3] = biological target: ELI-glucagon (Eli Lilly's Glucagon, recombinant, reference listed drug) (UniProt P01275); assay: SEC; SEC-HPLC of recently released lots; Phenomenex Yarra 3 um SEC-2000, isocratic 55% 0.1% TFA / 45% acetonitrile, 1.000 mL/min, ambient temperature, UV 214 nm; reconstituted with the included diluent and tested immediately; monomer and dimer told by a calibration curve

% Dimer by SEC-HPLC [1] | stoichiometry N [1] | % Dimer by SEC-HPLC [2] | stoichiometry N [2] | % Dimer by SEC-HPLC [3] | stoichiometry N [3] | Substance
0.062% and 0.08% and 0.115% | 2 | – | – | – | – | AMP-glucagon (generic synthetic glucagon for injection, Amphastar Pharmaceuticals) (from UniProt P01275 53-81) (peptide)
– | – | 0.133% and 0.097% and 0.144% | 2 | 0.04% and 0.042% and 0.038% | 2 | ELI-glucagon (Eli Lilly's Glucagon, recombinant, reference listed drug) (from UniProt P01275 53-81) (peptide)
